Changes are numbered by the printed parent chain.
B1: 23B8 (antibody, V domains shown)
VH: QVTLKESGGGLVKPGGSLRLSCAASGFPFSNAWMNWVRQAPGKGLEWVGHIKSKTDGGTTDYAAPVKGRFTISRDDSKNMVFLQMNSLKTEDTAVYYCTTDRAYCGGDCSHYYYHDLDVWGQGTTVTVSS
B2: 24C9 (antibody, V domains shown)
VH: EVQLVQSGGGVVQPGRSLRLSCAASGFTLSSYGMYWVRQAPGKGREWVAFIRFDESKKYYADSVKGRFTISRDNSKNTLYLQMNSLRAEDTAVYYCARDGEGGYCTNGVCHGLDVWGQGTTVTVSS
B3: 24G5 (designed binder)
chain: QLQLQESGGGLVQPGGSLRLTCAASGFTFSSFAMSWVRQAPGKGLERVSEISDSGGNTYYADSVKGRFTISRDNSKNTLYLQMNSLRAEDTAVYYCAKDDSSGWAFNIWDQGTVVTVSS
B4: 24A1 (designed binder)
chain: B3 chain with Q1E, L2V, Q5V, F32Y, D53G, G56S, N57S, Y59N

How the values were obtained:
[1] = target: hTFR1-His (human, UniProt P02786); assay: SPR
[2] = target: T1, fasTFR1 (cell-expressed) (Macaca fascicularis); assay: FACS
T1 chain: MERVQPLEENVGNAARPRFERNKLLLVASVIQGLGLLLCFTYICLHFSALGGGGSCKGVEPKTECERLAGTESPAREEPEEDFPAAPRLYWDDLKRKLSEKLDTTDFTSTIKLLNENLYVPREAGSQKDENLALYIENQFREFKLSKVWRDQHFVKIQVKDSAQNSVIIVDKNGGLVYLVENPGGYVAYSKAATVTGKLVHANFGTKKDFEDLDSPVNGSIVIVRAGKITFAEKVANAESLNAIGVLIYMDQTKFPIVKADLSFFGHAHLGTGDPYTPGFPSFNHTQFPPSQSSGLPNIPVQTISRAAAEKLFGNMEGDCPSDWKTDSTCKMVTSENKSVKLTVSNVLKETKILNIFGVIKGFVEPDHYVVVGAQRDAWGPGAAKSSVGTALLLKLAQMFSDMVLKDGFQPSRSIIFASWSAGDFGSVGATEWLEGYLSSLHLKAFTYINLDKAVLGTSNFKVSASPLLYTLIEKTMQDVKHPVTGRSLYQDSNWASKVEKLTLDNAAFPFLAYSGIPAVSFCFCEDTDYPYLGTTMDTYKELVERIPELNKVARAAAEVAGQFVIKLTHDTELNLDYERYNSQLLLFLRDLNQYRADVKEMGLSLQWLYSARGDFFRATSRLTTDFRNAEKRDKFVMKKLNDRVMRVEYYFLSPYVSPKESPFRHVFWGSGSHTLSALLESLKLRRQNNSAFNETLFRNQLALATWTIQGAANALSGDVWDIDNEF

hTFR1-His, sequence (P02786 89-760): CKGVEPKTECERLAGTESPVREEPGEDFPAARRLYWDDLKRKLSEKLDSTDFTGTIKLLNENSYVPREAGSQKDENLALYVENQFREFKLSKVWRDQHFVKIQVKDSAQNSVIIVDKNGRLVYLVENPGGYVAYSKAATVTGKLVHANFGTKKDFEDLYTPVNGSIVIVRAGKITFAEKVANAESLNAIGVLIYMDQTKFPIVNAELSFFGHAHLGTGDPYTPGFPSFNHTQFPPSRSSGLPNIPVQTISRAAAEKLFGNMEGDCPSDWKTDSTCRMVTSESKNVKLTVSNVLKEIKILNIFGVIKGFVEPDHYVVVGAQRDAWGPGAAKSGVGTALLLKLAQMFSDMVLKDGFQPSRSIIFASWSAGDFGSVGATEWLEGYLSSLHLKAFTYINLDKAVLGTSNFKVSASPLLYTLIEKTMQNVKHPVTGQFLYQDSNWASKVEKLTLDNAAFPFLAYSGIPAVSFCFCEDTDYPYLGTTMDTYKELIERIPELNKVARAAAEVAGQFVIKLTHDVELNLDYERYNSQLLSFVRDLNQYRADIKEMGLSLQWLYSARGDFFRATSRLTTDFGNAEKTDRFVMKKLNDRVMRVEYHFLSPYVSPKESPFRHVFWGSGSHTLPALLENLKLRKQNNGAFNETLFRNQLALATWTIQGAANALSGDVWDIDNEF

Binder	Kd [1]	binding result [2]
B1	8.73 nM	–
B2	14.3 nM	no binding
B3	2.05 nM	–
B4	2.93 nM	–

— patent US20260364189 (published 2026)
